The source of these data is US20250295734A1, “ANTICOAGULANT PROTEINS AND THEIR USE FOR TREATING DISEASES ASSOCIATED WITH THE ACTIVATION OF NEUTROPHILS” (BIOXODES, priority 2018, published 2025).

Assay [1] concerns platelet accumulation and fibrin generation on the injured vessel walls. Nature of the assay: Laser-induced vessel wall injury of cremaster muscle arterioles: platelet and fibrin detection. The assay is classed as in vivo, mice (C57BL/6JRj). Conditions: iv bolus 20.5 mg/kg + infusion 3.7 mg/kg/h. As to the method:
Ir-CPI was administered intravenously as a bolus (20.5 mg/kg) immediately followed by a continuous infusion at a rate of 3.7 mg/kg/h (see Table 1 below). Due to fast distribution and elimination of Ir-CPI in the mice (t1/2α=14 min and t1/2β=236 min), the combination of the bolus and the infusion was chosen in order to maintain a constant Ir-CPI concentration into the blood.
Intravital video-microscopy of the cremaster muscle microcirculation was done as previously described (Falati et al., 2002).
Mice were anesthetized with intraperitoneal injection of ketamine (125 mg/kg), xylazine (12.5 mg/kg) and atropine (0.25 mg/kg) and were maintained at 37° C. on a thermo-controlled rodent blanket.
A tracheal tube was inserted into the trachea to facilitate breathing. A canula was inserted into a jugular vein for administration of pentobarbital. Pentobarbital (12 mg/kg) was administered in the jugular vein every 20-30 minutes to maintain the mice under anesthesia throughout the handling. The same jugular vein canula was used for the administration of the antibodies and the enzymatic substrate coupled to a fluorochrome that is necessary to follow the development of the thrombus (detection of fibrin and/or platelets and/or neutrophils and/or neutrophil elastase activity). A canula was also inserted in the second contralateral jugular vein for administration of the vehicle or the test item (Ir-CPI or NaCl).
After the scrotum was incised, the testicle and surrounding cremaster muscle were exteriorized onto an intravital microscopy tray. The cremaster muscle was continuously perfused with thermo-controlled (37° C.) and aerated (95% N2, 5% CO2) bicarbonate-buffered saline solution throughout the experiment.
Microvessel data were obtained using an Olympus AX61WI microscope with a 60×0.9-numerical aperture water immersion objective. The digital wide-field fluorescence microscopy system has previously been described (Falati et al., 2002). Digital images were captured with a Cooke Sensicam CCD camera in 640×480 format.
Vessel wall injury was induced with a Micropoint Laser System (Photonics Instruments) focused through the microscope objective, parfocal with the focal plane and aimed at the vessel wall, as previously described (Dubois et al., 2006). Typically, 1 or 2 pulses were required to induce vessel wall injury.
Multiple thrombi were studied in a single mouse, with new thrombi formed upstream of earlier thrombi to avoid any contribution from thrombi generated earlier in the animal under study. Laser-beam injuries were done at various time after the start of test-item administration (+5 min up to about 150 min after bolus administration of Ir-CPI or NaCl (control)).
Image analysis was performed using Slidebook 4.1 (Intelligent Imaging Innovations). Fluorescence data were captured digitally at up to 50 frames per second and analyzed as previously described (Falati et al., 2002). The kinetics of thrombus formation were analyzed by determining median fluorescence values over time in a minimum number of 20 thrombi.
In vivo detection of fibrin was performed using an Alexa Fluor 488-conjugated anti-fibrin antibody from Darbousset et al., 2014, administered intravenously at 0.5 μg/g of mouse. […]
Platelet accumulation and fibrin generation on the injured vessel walls were monitored using the following fluorescently labeled antibodies: DyLight649-labeled anti-GPIb antibody and Alexa Fluor 488-conjugated anti-fibrin antibody, respectively.

In assay [2] the test system is thrombin generation induced by ellagic acid (intrinsic pathway activator). Conditions: cited from earlier work.
The target of the next assay is T1, Factor XIIa (Homo sapiens, UniProt P00748).
T1 construct: The resulting α-FXIIa has a heavy chain of 50 kDa, connected to a light chain of 28 kDa
T1 sequence (P00748 20-372 limits assumed): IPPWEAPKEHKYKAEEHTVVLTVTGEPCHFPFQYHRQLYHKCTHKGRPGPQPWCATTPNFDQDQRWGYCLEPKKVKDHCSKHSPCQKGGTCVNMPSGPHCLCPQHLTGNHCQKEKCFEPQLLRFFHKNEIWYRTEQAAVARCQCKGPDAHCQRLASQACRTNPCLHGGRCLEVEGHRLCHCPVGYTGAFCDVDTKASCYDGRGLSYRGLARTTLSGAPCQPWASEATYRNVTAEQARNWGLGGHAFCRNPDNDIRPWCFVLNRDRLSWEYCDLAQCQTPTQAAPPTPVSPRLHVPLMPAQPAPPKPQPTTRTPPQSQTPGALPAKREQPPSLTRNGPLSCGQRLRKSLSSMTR
T1 sequence (P00748 373-615 limits assumed): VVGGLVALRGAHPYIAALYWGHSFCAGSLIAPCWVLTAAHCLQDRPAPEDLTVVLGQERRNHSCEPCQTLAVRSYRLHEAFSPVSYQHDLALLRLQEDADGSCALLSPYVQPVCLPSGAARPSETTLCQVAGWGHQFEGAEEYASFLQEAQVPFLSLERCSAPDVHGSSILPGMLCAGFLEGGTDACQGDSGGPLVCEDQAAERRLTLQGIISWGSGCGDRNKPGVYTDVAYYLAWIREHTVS
The note with it: cited from earlier work.

The next assay concerns the target thrombin (Homo sapiens, UniProt P00734). The note with it: cited from earlier work.
A further assay concerns the target plasminogen (Homo sapiens, UniProt P00747). Conditions: cited from earlier work.
Another assay has as its target FXIa (Homo sapiens, UniProt P03951). Conditions: aPTT-based test, FXI deficient plasma; cited from earlier work.

Sequence of plasminogen (P00747 20-810 limits assumed, species assumed): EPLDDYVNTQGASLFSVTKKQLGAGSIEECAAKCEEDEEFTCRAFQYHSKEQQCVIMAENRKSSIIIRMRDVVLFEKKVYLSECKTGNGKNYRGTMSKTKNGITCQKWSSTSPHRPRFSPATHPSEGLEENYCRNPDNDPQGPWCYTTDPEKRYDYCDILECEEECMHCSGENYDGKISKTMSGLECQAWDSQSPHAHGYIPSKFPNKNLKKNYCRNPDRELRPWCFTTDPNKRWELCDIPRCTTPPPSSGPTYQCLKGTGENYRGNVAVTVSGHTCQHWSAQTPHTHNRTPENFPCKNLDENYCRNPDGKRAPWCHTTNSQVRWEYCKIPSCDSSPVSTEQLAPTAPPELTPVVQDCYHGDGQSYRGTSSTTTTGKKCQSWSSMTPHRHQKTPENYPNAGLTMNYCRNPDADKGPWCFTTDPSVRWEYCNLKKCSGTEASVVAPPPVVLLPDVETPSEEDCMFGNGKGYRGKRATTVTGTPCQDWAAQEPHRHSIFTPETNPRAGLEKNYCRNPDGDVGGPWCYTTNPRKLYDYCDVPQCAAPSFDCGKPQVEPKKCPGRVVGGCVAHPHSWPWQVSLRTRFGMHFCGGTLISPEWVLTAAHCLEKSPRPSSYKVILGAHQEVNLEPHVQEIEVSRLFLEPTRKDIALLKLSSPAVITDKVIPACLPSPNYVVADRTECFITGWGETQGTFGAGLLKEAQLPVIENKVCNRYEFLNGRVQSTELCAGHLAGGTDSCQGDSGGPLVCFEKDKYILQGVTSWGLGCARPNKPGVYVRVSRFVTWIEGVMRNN
Sequence of FXIa (P03951 19-387 limits assumed): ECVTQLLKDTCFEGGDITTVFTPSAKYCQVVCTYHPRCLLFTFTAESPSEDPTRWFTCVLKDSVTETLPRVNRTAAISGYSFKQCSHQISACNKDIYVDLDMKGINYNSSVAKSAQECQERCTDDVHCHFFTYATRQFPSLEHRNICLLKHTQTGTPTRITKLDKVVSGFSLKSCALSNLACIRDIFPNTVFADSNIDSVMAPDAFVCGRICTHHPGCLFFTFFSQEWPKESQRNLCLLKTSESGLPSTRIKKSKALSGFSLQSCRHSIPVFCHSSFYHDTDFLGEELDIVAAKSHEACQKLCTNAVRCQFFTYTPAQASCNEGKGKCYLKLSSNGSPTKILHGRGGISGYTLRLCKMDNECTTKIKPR
Sequence of FXIa (P03951 388-625 limits assumed): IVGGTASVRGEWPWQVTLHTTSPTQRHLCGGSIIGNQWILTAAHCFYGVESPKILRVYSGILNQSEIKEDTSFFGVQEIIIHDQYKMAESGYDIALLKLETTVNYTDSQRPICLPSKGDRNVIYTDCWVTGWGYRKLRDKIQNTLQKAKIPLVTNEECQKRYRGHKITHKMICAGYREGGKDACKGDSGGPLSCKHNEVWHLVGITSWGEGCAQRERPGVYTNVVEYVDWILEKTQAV

B1: Ir-CPI: Ixodes ricinus salivary gland polypeptide, contact phase inhibitor, MW=7660 Da; sequence SEQ ID NO: 1 or SEQ ID NO: 2 (protein)
chain: ANHKGRGRPAKCKLPPDDGPCRARIPSYYFDRKTKTCKEFMYGGCEGNENNFENITTCQEECRAKKV
As to B1, the “maximal median of integrated platelet fluorescence” value in assay [1] (at T214 sec after laser injury) was 121 783 AU. Further, the “median of integrated platelet fluorescence” value in assay [1] (at T228 sec (end of measurement)) is 101 887 AU. In addition, the “median of integrated fibrin fluorescence intensity compared to control mice” value in assay [1] (every time point 0, 15, 30, 45, 75 and 90 min) is “lower”. The “fibrin generation compared to control mice” value in assay [1] (first 3.8 min after laser injury) is recorded as “less important”. In addition, the “platelet accumulation compared to control mice” value in assay [1] (short time period (228 sec)) is on record as “drastically decreased”. The thrombin generation entry in assay [2] is “strong dose-dependent reduction”. In the assay with Factor XIIa, the “activation of Factor XI by Factor XIIa” value is given as “inhibit activation” and the “activation of PK by Factor XIIa” value is on record as “inhibit activation”. Also, the activity on thrombin result with thrombin is “totally inactive”. Moreover, the binding to plasminogen entry with plasminogen is “unable to bind”. The FXIa clotting activity entry in the assay with FXIa is on record as “inhibits”.
